# Measurements taken from article PMC12057046, “Elucidation of short linear motif-based interactions of the MIT and rhodanese domains of the ubiquitin-specific protease 8” (Biology Direct, 2025).
# B1: TET3 peptide 1705-1720 (methylcytosine dioxygenase TET3), 16-mer library wild type / USP8 rhodanese domain (ubiquitin carboxyl-terminal hydrolase 8, residues 174-317) (parent)
# chain 1: GLALWEAKMKQLAERA
# chain 2: KCETKEKGAITAKELYTMMTDKNISLIIMDARRMQDYQDSCILHSLSVPEEAISPGVTASWIEAHLPDDSKDTWKKRGNVEYVVLLDWFSSAKDLQIGTTLRSLKDALFKWESKTVLRNEPLVLEGGYENWLLCYPQYTTNAKV
# Variants of: B1
# Test: peptide-phage display deep mutational scan (M13, 16-mer library, displayed with a C-terminal GGGSG linker encoded by the 3' flank) selected against the GST-tagged USP8 rhodanese domain, four rounds; NGS counts summed over selection …
# Conditions: with USP8 rhodanese domain (ubiquitin carboxyl-terminal hydrolase 8, residues 174-317), 10 µg GST-bait on MaxiSorp, pre-cleared on GST, 2 h at 4 °C, five washes with 0.05% Tween 20 in PBS, not graded, scale: average over two replicas of the peptide's fractional NGS count
row,Variant,screen value
1,chain 1 GLALWEWKMKQLAERA [chain 1 A7W],0.0002
2,chain 1 GLALWEEKMKQLAERA [chain 1 A7E],8.66e-06
3,chain 1 GLALWELKMKQLAERA [chain 1 A7L],4.33e-06
4,chain 1 GLALWEFKMKQLAERA [chain 1 A7F],4.33e-06
5,chain 1 GLALWESKMKQLAERA [chain 1 A7S],2.3e-05
6,chain 1 GLALWEYKMKQLAERA [chain 1 A7Y],2.3e-05
7,chain 1 GLALWETKMKQLAERA [chain 1 A7T],0.000404
8,chain 1 GLALWEPKMKQLAERA [chain 1 A7P],5.46e-05
9,chain 1 GLALWEQKMKQLAERA [chain 1 A7Q],0.00623
10,chain 1 GLALWENKMKQLAERA [chain 1 A7N],0.000194
11,chain 1 GLALWEIKMKQLAERA [chain 1 A7I],3.9e-05
12,chain 1 GLALWEVKMKQLAERA [chain 1 A7V],5.18e-05
13,chain 1 GLALWEHKMKQLAERA [chain 1 A7H],0.00234
14,chain 1 GLALWERKMKQLAERA [chain 1 A7R],4.33e-06
15,chain 1 GLALWEMKMKQLAERA [chain 1 A7M],0.000234
16,chain 1 GLALWEGKMKQLAERA [chain 1 A7G],7.04e-05
17,chain 1 GLALWEAPMKQLAERA [chain 1 K8P],1.73e-05
18,chain 1 GLALWEANMKQLAERA [chain 1 K8N],2.3e-05
19,chain 1 GLALWEAQMKQLAERA [chain 1 K8Q],4.33e-06
20,chain 1 GLALWEAEMKQLAERA [chain 1 K8E],4.33e-06
21,chain 1 GLALWEAKMLQLAERA [chain 1 K10L],0.000183
22,chain 1 GLALWEAKMPQLAERA [chain 1 K10P],8.66e-06
23,chain 1 GLALWEAKMHQLAERA [chain 1 K10H],0.0117
24,chain 1 GLALWEAKMGQLAERA [chain 1 K10G],0.00596
25,chain 1 GLALWEAKMNQLAERA [chain 1 K10N],0.0933
26,chain 1 GLALWEAKMEQLAERA [chain 1 K10E],0.0209
27,chain 1 GLALWEAKMFQLAERA [chain 1 K10F],8.06e-05

row,Variant,screen value
1,chain 1 GLALWEAKMRQLAERA [chain 1 K10R],0.00248
2,chain 1 GLALWEAKMAQLAERA [chain 1 K10A],0.0149
3,chain 1 GLALWEAKMIQLAERA [chain 1 K10I],0.00024
4,chain 1 GLALWEAKMSQLAERA [chain 1 K10S],0.0345
5,chain 1 GLALWEAKMDQLAERA [chain 1 K10D],0.000192
6,chain 1 GLALWEAKMMQLAERA [chain 1 K10M],1.15e-05
7,chain 1 GLALWEAKMYQLAERA [chain 1 K10Y],0.000154
8,chain 1 GLALWEAKMWQLAERA [chain 1 K10W],0.00214
9,chain 1 GLALWEAKMVQLAERA [chain 1 K10V],0.00689
10,chain 1 GLALWEAKMTQLAERA [chain 1 K10T],0.00016
11,chain 1 GLALWEAKMQQLAERA [chain 1 K10Q],0.000152
12,chain 1 GLALWEAKMKQLAERI [chain 1 A16I],0.00523
13,chain 1 GLALWEAKMKQLAERL [chain 1 A16L],6.61e-05
14,chain 1 GLALWEAKMKQLAERR [chain 1 A16R],8.66e-06
15,chain 1 GLALWEAKMKQLAERH [chain 1 A16H],2.3e-05
16,chain 1 GLALWEAKMKQLAERS [chain 1 A16S],0.00296
17,chain 1 GLALWEAKMKQLAERM [chain 1 A16M],0.000143
18,chain 1 GLALWEAKMKQLAERF [chain 1 A16F],4.33e-06
19,chain 1 GLALWEAKMKQLAERV [chain 1 A16V],0.00901
20,chain 1 GLALWEAKMKQLAERG [chain 1 A16G],6.5e-05
21,chain 1 GLALWEAKMKQLAERE [chain 1 A16E],0.00115
22,chain 1 GLALWEAKMKQLAERQ [chain 1 A16Q],0.00138
23,chain 1 GLALWEAKMKQLAERT [chain 1 A16T],0.00395
24,chain 1 GLALWEAKMKQLAERN [chain 1 A16N],0.00504
25,chain 1 GLALWEAKMKQLAERD [chain 1 A16D],0.027
26,chain 1 GLALWEAKMKQLAERP [chain 1 A16P],0.0179
27,chain 1 GLALWEAKMKQLAERY [chain 1 A16Y],1.58e-05

# More lines, now with the values ahead:
row,screen value,Variant
1,0.000181,chain 1 GLALWEAKTKQLAERA [chain 1 M9T]
2,2.45e-05,chain 1 GLALWEAKPKQLAERA [chain 1 M9P]
3,4.33e-06,chain 1 GLALWEAKLKQLAERA [chain 1 M9L]
4,4.74e-05,chain 1 GLALWEAKIKQLAERA [chain 1 M9I]
5,0.000108,chain 1 GLALWEAKRKQLAERA [chain 1 M9R]
6,1.3e-05,chain 1 GLALWEAKVKQLAERA [chain 1 M9V]
7,0.00064,chain 1 GLALWEAKAKQLAERA [chain 1 M9A]
8,0.00223,chain 1 GLALWEAKWKQLAERA [chain 1 M9W]
9,1.3e-05,chain 1 GLALWEAKFKQLAERA [chain 1 M9F]
10,3.9e-05,chain 1 GLALWEAKYKQLAERA [chain 1 M9Y]
11,0.0119,chain 1 GLALWEAKSKQLAERA [chain 1 M9S]
12,1.73e-05,chain 1 GYALWEAKMKQLAERA [chain 1 L2Y]
13,4.33e-06,chain 1 GAALWEAKMKQLAERA [chain 1 L2A]
14,4.33e-06,chain 1 GTALWEAKMKQLAERA [chain 1 L2T]
15,0.000603,chain 1 GMALWEAKMKQLAERA [chain 1 L2M]
16,4.18e-05,chain 1 GFALWEAKMKQLAERA [chain 1 L2F]
17,4.33e-06,chain 1 GRALWEAKMKQLAERA [chain 1 L2R]
18,2.73e-05,chain 1 GHALWEAKMKQLAERA [chain 1 L2H]
19,0.000401,chain 1 GWALWEAKMKQLAERA [chain 1 L2W]
20,4.33e-06,chain 1 GPALWEAKMKQLAERA [chain 1 L2P]

row,screen value,Variant
1,0.00764,chain 1 GVALWEAKMKQLAERA [chain 1 L2V]
2,1.15e-05,chain 1 GSALWEAKMKQLAERA [chain 1 L2S]
3,0.00377,chain 1 GIALWEAKMKQLAERA [chain 1 L2I]
4,1.3e-05,chain 1 GKALWEAKMKQLAERA [chain 1 L2K]
5,0.000201,chain 1 GLALWEAKMKMLAERA [chain 1 Q11M]
6,0.0108,chain 1 GLALWEAKMKLLAERA [chain 1 Q11L]
7,0.00724,chain 1 GLALWEAKMKDLAERA [chain 1 Q11D]
8,2.17e-05,chain 1 GLALWEAKMKWLAERA [chain 1 Q11W]
9,0.000837,chain 1 GLALWEAKMKGLAERA [chain 1 Q11G]
10,0.000162,chain 1 GLALWEAKMKRLAERA [chain 1 Q11R]
11,3.6e-05,chain 1 GLALWEAKMKALAERA [chain 1 Q11A]
12,0.000267,chain 1 GLALWEAKMKHLAERA [chain 1 Q11H]
13,8.66e-06,chain 1 GLALWEAKMKILAERA [chain 1 Q11I]
14,1.15e-05,chain 1 GLALWEAKMKKLAERA [chain 1 Q11K]
15,0.00344,chain 1 GLALWEAKMKSLAERA [chain 1 Q11S]
16,8.66e-05,chain 1 GLALWEAKMKYLAERA [chain 1 Q11Y]
17,0.000142,chain 1 GLALWEAKMKTLAERA [chain 1 Q11T]
18,4.33e-06,chain 1 GLALWEAKMKFLAERA [chain 1 Q11F]
19,0.00283,chain 1 GLALWEAKMKNLAERA [chain 1 Q11N]
20,8.66e-06,chain 1 GLALWEAKMKVLAERA [chain 1 Q11V]
